The supplement of paper PMC9732359
± gives the uncertainty stated by the source.

Experiment: protein stability index of a GFP-peptide fusion (yeast GPS) (PSI 1-4); higher = more stable; sorted into four equal gates, so the index is relative within each strain
Conditions: san1∆
Outline: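 Sequencing reads from sorted gates were used to score each peptide. The library consisted of tiled 17-residue yeast protein peptides fused downstream of GFP on a Cherry-expressing plasmid, pooled and carried in yeast. Mid-log cultures in leucine-free medium were split into four equal gates by GFP/Cherry ratio, and each gate's plasmids were PCR-amplified and Illumina-sequenced. The protein stability index adds up, over all gates, the read frequency multiplied by the gate number.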

Sequence | protein stability index
GNGELYMDCLLYDLRAS [SNU114] | 1.91 ± 0.13

Same assay, conditions: ubr1∆

Sequence | protein stability index
FPWLNAIKYRPTSVKLL [POP3] | 1.96 ± 0.035
FQAHEITSFLLSKMENV [NAS6] | 1.69 ± 0.045
FQFKLLQSNSKLASTLE [SMC4] | 2.58 ± 0.038
FQHADNSSMRYGYWFDC [AAR2] | 3.14 ± 0.14
FQIPTNLDAAAAGTSQA [RPC10] | 2.66 ± 0.085
FRFQGGIIVAVDSRATA [PRE2] | 1.62 ± 0.078
FRRDFLLREYDILSQIL [YJL039C/NUP192] | 2.27 ± 0.06
FRTVKEMVKDRGYFITQ [RPB5] | 2.08 ± 0.041
FSDKVNALWILVDLVSH [ITC1] | 1.27 ± 0.045
FSFTEPAQKDSSVVSEP [YOR098C/NUP1] | 3.26 ± 0.094
FSIFNYFKMFPASKHDK [RPC34] | 2.44 ± 0.2
FSKAIEWDMLNVEEEQI [BRR2] | 2.93 ± 0.06
FSKQCLISNAIYGKKTM [ECM29] | 1.82 ± 0.067
FSRFVDQFIRHVLRGVE [YCG1] | 1.72 ± 0.16
FSTNVKDEIVLSGNSVE [RPL9A] | 2.59 ± 0.054
FTDENTIVLSLNVKCTR [RPC40] | 3.46 ± 0.091
FTFGLTVVQVYDNGQVF [RPP0] | 1.39 ± 0.16
FTIQSFVSSLSNTSTLK [BRR2] | 2.24 ± 0.034
FTIVSLVQLKKFSDLKF [YML103C/NUP188] | 2.06 ± 0.073
FTKPPANETDKRPTPPS [YOR098C/NUP1] | 3.15 ± 0.037
FTRPLFVLLEIEPVTKV [YCS4] | 1.97 ± 0.069
FTTLLESKQDGLSILFL [YML103C/NUP188] | 3 ± 0.14
FVAKLAAQIFGSYNAFE [COR1] | 2.13 ± 0.046
FVDDTNVYRVTVHKTFE [PRP8] | 2.52 ± 0.068
FVIPALPAAVSKSLQES [RPC82] | 2.04 ± 0.12

Sequence | protein stability index
FVVPTFGQDVSPMINST [SNM1] | 2.84 ± 0.067
FVWLSSEENIGSGLLKL [SWI1] | 3.38 ± 0.068
FYDIRSLLERHIPRLIP [YJL039C/NUP192] | 2.77 ± 0.055
FYVPQARNVTFDSLRNF [GRR1] | 2.22 ± 0.059
GAASNRTKFVRSLVREI [RPL36A] | 3.25 ± 0.12
GAGIQIIMQADLALKMG [FAS2] | 2.03 ± 0.051
GAGSAFGFSSSGTAATG [YOR098C/NUP1] | 3.57 ± 0.14
GAHGYSGFYTFSLLDHH [PRE1] | 2.76 ± 0.12
GAHLGRFVIWTEAAFTK [RPL4A] | 2.54 ± 0.25
GAIDEALEEAKLSDNIS [YDL116W/NUP84] | 3.3 ± 0.045
GAKPEEKKDDNSSKPAF [YJL041W/NSP1] | 2.86 ± 0.078
GAKQTQGGAMNKKSEQA [SRP72] | 3.47 ± 0.054
GALKGASDGGLYVPHSE [RPL5] | 2.67 ± 0.052
GCKNGSFTLLNQLSQTN [NUT1] | 3.22 ± 0.11
GDAAPAEEAAAEEEEES [RPP0] | 3.44 ± 0.12
GDFLDFQVHERLAPLIK [ARP7] | 3.47 ± 0.098
GDVGKNHITEFPSIPLP [RPC31] | 3.22 ± 0.093
GEANKHHWEDLQKRVIE [RPN5] | 3.81 ± 0.27
GEDSTKPLGPCDVFWVQ [POP1] | 2.8 ± 0.057
GEFETKIAGIEGHLAEI [SRB2] | 3.1 ± 0.13
GEKIDSNKPIFLFAPEL [SWI1] | 2.91 ± 0.23
GELRSYLKGATGHSQGL [FAS1] | 3.87 ± 0.22
GESEKSSDVDMDDEEWR [RPC53] | 3.33 ± 0.18
GEVMKELSEEKYIVKAS [RPT4] | 3.3 ± 0.042
GFGILEDGMIIDVNLNF [RRP40] | 3.02 ± 0.076

Sequence | protein stability index
GFGLVYNSVAEAKKFEP [RPS24A] | 2.8 ± 0.14
GFINQKNLKPQEQLKNV [YIL149C/MLP2] | 2.9 ± 0.068
GFKWLNKLDEYHGLYTN [LIN1] | 1.67 ± 0.068
GFYQIKKIVDSKKLNLK [YMR129W/POM152] | 2.62 ± 0.11
GGFTAYGGADYGEATSP [RPO21] | 2.01 ± 0.068
GGGWDNVDQTKTQCPNY [RPC11] | 3.22 ± 0.09
GGGYFSAAGMTAAIDSV [FAS1] | 3.07 ± 0.15
GGKAGSAAKASQSRSAK [HTA1] | 3.19 ± 0.048
GGNSTQNTSNMNAGGLF [YGR119C/NUP57] | 3.19 ± 0.081
GGQHHHRINMDKYHPGY [RPL28] | 2.99 ± 0.055
GGSSDTADKIRIHAKNF [GAL11] | 1.68 ± 0.054
GGVPTTSFGQPQSAPNQ [YOR098C/NUP1] | 2.15 ± 0.095
GHRADVGGQFSKVQFDA [REC8] | 3.23 ± 0.056
GHSQFTSHYQNYHPNAS [RPN4] | 2.22 ± 0.038
GIDLAYNMYDAYGNWFN [PRP8] | 3 ± 0.045
GIDPTRIYTNSFIDIME [RPO21] | 2.53 ± 0.034
GIFGMDFYVVMNRPGAR [RPL11A] | 2.24 ± 0.047
GIGSLTDLMSIVQELLD [RPC34] | 3.17 ± 0.13
GIKLALDPNLITLALSS [SRB4] | 2.63 ± 0.04
GINSPLSSVALRSDFYI [YJL039C/NUP192] | 3.07 ± 0.15
GIPPPYDKKKRVVVPQA [RPL16B] | 2.13 ± 0.058
GIPTDKGPRFRKLTSQE [PRE8] | 3.46 ± 0.25
GIQEVVHNTNSFIISSL [NUT1] | 2.54 ± 0.066
GITYRREDMPFTAEGIV [RPB2] | 2.07 ± 0.12
GIVLEKLGIESKQPNSA [RPS23A] | 2.38 ± 0.1

Sequence | protein stability index
GKELDSLDLNNLELGGL [PGD1] | 3.24 ± 0.066
GKEVEVLMETKNTQSPQ [SNU114] | 3.44 ± 0.11
GKGDNDNGLGPLKYAPH [SWI3] | 2.7 ± 0.052
GKGLQSAIDVLDPLTKD [RPN2] | 2.81 ± 0.069
GKHSQEQNSSSAKPSQI [SIR4] | 3.24 ± 0.052
GKIDEAADILCELQVET [RPN5] | 3.46 ± 0.095
GKIQENIPFWKHVGFEL [SRP72] | 2.57 ± 0.035
GKLAKPRQLHNTHWGLV [RPB2] | 2.94 ± 0.092
GKMIELISGKAGVLNGT [RET1] | 2.6 ± 0.11
GKTNIALLTVLKALSHH [BRR2] | 2 ± 0.057
GKTSFFQALGVPTKIAR [RPP0] | 3.26 ± 0.071
GLIMLNLQPASVINNYL [NUT1] | 2 ± 0.071
GLKRSQLDEFKNKYLKD [SWP82] | 2.69 ± 0.17
GLMKSYKIPKVMKDIYK [ESC2] | 2.92 ± 0.11
GLNSDAEEVRNFALTTL [ECM29] | 1.62 ± 0.11
GLNWLISLHENKLSGIL [ISW2] | 2.31 ± 0.092
GLSILFLTGQFASNKKI [YML103C/NUP188] | 2.35 ± 0.052
GLSMLAKLKELAEDVDD [RPC31] | 2.95 ± 0.047
GLSVTQKVFVRSRNGGA [DIS3] | 1.62 ± 0.063
GLVNPKTVQSMTQRAIQ [SWI3] | 2.05 ± 0.092
GMLAMASLHSKELTRIP [MED4] | 1.88 ± 0.19
GMNNASAGLFGSKPAGG [YGL172W/NUP49] | 3.23 ± 0.053
GMYALRERRIHVTQEDF [RPT6] | 2.49 ± 0.1
GNGELYMDCLLYDLRAS [SNU114] | 2.29 ± 0.077
